The target of data set [1] is TagI, SRA-HNH modification-dependent restriction endonuclease from Thermocrispum agreste (Thermocrispum agreste). Nature of the data set: SEC; analytical gel filtration of TagI alone; apparent molecular mass compared with the theoretical mass of the dimer. (SEC sorts molecules by how far they enter the pores of the column.)
The target is the same in data set [2]. Nature of the data set: SEC-MALS; multi-angle light scattering of TagI alone.
Data set [3] has as its target T1, TagI (Thermocrispum agreste, UniProt A0A3F2YM30 1-311).
T1 sequence: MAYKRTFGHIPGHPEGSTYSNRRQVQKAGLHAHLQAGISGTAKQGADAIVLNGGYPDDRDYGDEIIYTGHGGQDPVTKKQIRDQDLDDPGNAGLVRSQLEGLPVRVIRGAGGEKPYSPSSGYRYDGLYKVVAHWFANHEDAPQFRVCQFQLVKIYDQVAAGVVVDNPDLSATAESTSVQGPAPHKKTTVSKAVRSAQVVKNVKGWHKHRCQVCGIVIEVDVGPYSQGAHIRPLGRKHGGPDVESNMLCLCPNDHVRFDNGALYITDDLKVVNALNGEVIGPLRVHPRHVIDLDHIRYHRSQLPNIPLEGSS
Nature of the data set: analytical gel filtration (SEC co-migration); 1, 2 or 4 duplexes per TagI dimer; sharp complex peak, 93 kDa, about 1 duplex per dimer; analytical gel filtration; buffer, salt, pH and temperature not given in the material. Conditions: protein: recombinant; chain copies: 2; blunt.

Data set [4] concerns the target T1, TagI. Description: analytical gel filtration (SEC co-migration); 1, 2 or 4 duplexes per TagI dimer; migrated independently; analytical gel filtration; buffer, salt, pH and temperature not given in the material. Conditions: protein: recombinant; chain copies: 2; blunt.

For “TagI, SRA-HNH modification-dependent restriction endonuclease from Thermocrispum agreste (enzyme)”, the stoichiometry N in data set [1] and in data set [2] was 2 each time.

B1: 17mer fully methylated duplex (dsDNA)
DNA 1: CCTAGAGCAGCAATCCC
DNA 2: GGGATTGCTGCTCTAGG
modifications: 5mC at position 8 of strand 1 and position 8 of strand 2
As to B1, in the data set with TagI [3], the binding result was “binds”.

B2: 17mer unmodified duplex (dsDNA)
DNA 1: CCTAGAGCAGCAATCCC
DNA 2: GGGATTGCTGCTCTAGG
As to B2, the binding result with TagI [4] is “no binding”.

The record behind these values is article PMC6212794, “Crystal structure of the modification-dependent SRA-HNH endonuclease TagI”.
